Reference: patent US20250108100A1, “C-TERMINAL FRAGMENT OF APOLIPOPROTEIN E AND APPLICATION THEREOF IN INHIBITING y-SECRETASE ACTIVITY” (SYNPHATEC (SHANGHAI) BIOPHARMACEUTICAL TECHNOLOGY CO., LTD., priority 2022, published 2025)
“Also recorded” adds a separate entry of the source.

Columns and labels:
[1] = system: ADAM10, BACE1, PS1 and PS2; assay: mRNA (qRT-PCR) and protein (Western blot) expression of APP secretases in HEK 293T cells; format: cell-based, human
Experimental: • a) A plasmid expressing the target protein in mammalian cells was constructed, and the protein expression promoter is CAG. • b) The target protein was expressed in HEK 293T cell line. Cells were subcultured one day before transfection, and transfection was performed when the degree of cell adhesion reached 70%-80%. The transfection reagent was lipofectamine2000 (ThermoFisher). • c) 4-6 hours post transfection, the medium were replaced with fresh cell culture medium. • d) 36-48 hours post transfection, the cells were lysed (10% 1M tris-HCl (pH=6.8), 4% SDS, 20% glycerol, 0.01% bromophenol blue), and the protein samples were collected and used for Western blot or stored in a −80° C. freezer. • e) Polyacrylamide gel electrophoresis. Before protein loading, the protein was boiled at 98° C. for 10 min, and then centrifuged at 12000 rpm for 10 min. Electrophoresis: 80V for the upper stacking gel; 120V for the lower separating gel. • f) Protein transfer. The filter paper was soaked in the electrophoresis solution before use, and the PVDF membrane was put in methanol for 10s to activate, and the gel after electrophoresis was taken out from the electrophoresis tank, put in the order of filter paper—PVD membrane—gel-filter paper from bottom to top, and they were put into the transfer instrument, with transferring in constant current at 0.1 A for 70 min. • g) Blocking and antibody incubation: the transferred PVDF membrane was placed in 5% BSA/TBST blocking solution, and blocked on a shaker at room temperature for 1 hour. The primary antibody was used to incubate at 4° C. overnight on a shaker (12-16 h); 1×TBST was used to wash three times, once every 10 minutes; the secondary antibody was used to incubate, shaked at room temperature for 1-2 h; 1×TBST was used to wash three times, once every 10 minutes. • h) Imaging by development: development was performed with ECL chemiluminescence hypersensitive chromogenic reagent. […]
Quantitect SYBR-Green qRT-PCR kit from Qiagen was used to quantitatively analyze the relative content of mRNA. qRT-PCR primers were listed in Table 2. […]

APLP1 = assay: γ-cleavage of APLP1 expressed in HEK 293T cells (Western blot); format: cell-based; settings: PF03084014 at 1 μM
Experimental: • a) A plasmid expressing the target protein in mammalian cells was constructed, and the protein expression promoter is CAG. • b) The target protein was expressed in HEK 293T cell line. Cells were subcultured one day before transfection, and transfection was performed when the degree of cell adhesion reached 70%-80%. The transfection reagent was lipofectamine2000 (ThermoFisher). • c) 4-6 hours post transfection, the medium were replaced with fresh cell culture medium. • d) 36-48 hours post transfection, the cells were lysed (10% 1M tris-HCl (pH=6.8), 4% SDS, 20% glycerol, 0.01% bromophenol blue), and the protein samples were collected and used for Western blot or stored in a −80° C. freezer. • e) Polyacrylamide gel electrophoresis. Before protein loading, the protein was boiled at 98° C. for 10 min, and then centrifuged at 12000 rpm for 10 min. Electrophoresis: 80V for the upper stacking gel; 120V for the lower separating gel. • f) Protein transfer. […]
Plasmids were transfected in HEK 293T or N2A cells for 36-48 hours and then lysed in cell lysis buffer [10% 1M tris-HCl (pH=6.8), 4% SDS, 20% glycerol, 0.01% bromophenol blue]. […] Finally, after washing 3 times with 1×TBST, the signal was detected by ECL Western blotting substrate (Solarbio, PE0010).

B1: ApoE CT: C-terminal fragment of ApoE, positions 216-299 of SEQ ID NO: 12; SEQ ID NO: 33 (protein)
chain: ARMEEMGSRTRDRLDEVKEQVAEVRAKLEEQAQQIRLQAEAFQARLKSWFEPLVEDMQRQWAGLVEKVQAAVGTSAAPVPSDNH
B1 was tested, and the “protein expression of APP metabolizing enzymes” value ([1]; Western blot) was “does not affect the protein expression”, the “mRNA expression of APP metabolizing enzymes” value ([1]; qRT-PCR) was “does not affect the mRNA expression” and the “mRNA and protein expression of ADAM10, BACE1, PS1 and PS2” value ([1]; qRT-PCR and Western blot, vs GFP control) was “does not change the mRNA and protein expression; also recorded: not altered”. For the same molecule, the “α-like CTF of APLP1” value (APLP1) was “does not increase the α-like CTF of APLP1; also recorded: did not increase the α-like CTF”.
